Experimental data reported in US20120134993A1 (ZymoGenetics, published 2012).
Positions count from the first letter of the chain named. In names and notes the source's numbering stands.

T1: recombinant human FGF-17 (human, UniProt O60258 23-216)
T1 sequence (looked up): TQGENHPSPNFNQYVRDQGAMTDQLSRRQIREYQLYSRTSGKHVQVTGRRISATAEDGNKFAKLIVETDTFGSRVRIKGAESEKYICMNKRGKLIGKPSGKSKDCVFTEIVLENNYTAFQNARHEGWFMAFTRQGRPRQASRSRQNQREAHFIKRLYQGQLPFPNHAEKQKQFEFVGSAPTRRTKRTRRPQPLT

T2: recombinant human FGF-8b (human, UniProt P55075-3 23-215)
T2 sequence (looked up): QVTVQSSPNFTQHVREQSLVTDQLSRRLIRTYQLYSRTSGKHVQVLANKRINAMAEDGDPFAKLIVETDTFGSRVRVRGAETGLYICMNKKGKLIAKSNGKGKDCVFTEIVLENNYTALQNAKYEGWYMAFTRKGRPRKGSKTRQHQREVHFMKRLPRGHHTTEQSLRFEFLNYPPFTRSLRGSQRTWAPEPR

T3: recombinant human FGF6 (human, UniProt P10767 83-208, limits assumed)
T3 sequence (looked up): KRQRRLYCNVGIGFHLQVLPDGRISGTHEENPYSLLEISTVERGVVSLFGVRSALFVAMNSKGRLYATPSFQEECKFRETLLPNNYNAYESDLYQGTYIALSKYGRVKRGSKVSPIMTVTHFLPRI

T4: recombinant human FGF4 (human, UniProt P08620 31-206, limits assumed)
T4 sequence (looked up): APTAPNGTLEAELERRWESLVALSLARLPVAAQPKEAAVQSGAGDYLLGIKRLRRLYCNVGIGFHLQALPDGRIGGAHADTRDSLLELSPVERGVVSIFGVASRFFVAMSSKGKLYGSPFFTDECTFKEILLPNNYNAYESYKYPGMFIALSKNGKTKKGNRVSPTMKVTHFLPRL

B1: FGFR3IIIc(143-375) Fc5, truncated FGFR3-Fc (A2518F) (Fc fusion)
chain: DTGVDTGAPYWTRPERMDKKLLAVPAANTVRFRCPAAGNPTPSISWLKNGREFRGEHRIGGIKLRHQQWSLVMESVVPSDRGNYTCVVENKFGSIRQTYTLDVLERSPHRPILQAGLPANQTAVLGSDVEFHCKVYSDAQPHIQWLKHVEVNGSKVGPDGTPYVTVLKTAGANTTDKELEVLSLHNVTFEDAGEYTCLAGNSIGFSHHSAWLVVLPAEEELVEADEAGSVYAGEPKSSDKTHTCPPCPAPEAEGAPSVFLFPPKPKDTLMISRTPEVTCVVVDVSHEDPEVKFNWYVDGVEVHNAKTKPREEQYNSTYRVVSVLTVLHQDWLNGKEYKCKVSNKALPSSIEKTISKAKGQPREPQVYTLPPSRDELTKNQVSLTCLVKGFYPSDIAVEWESNGQPENNYKTTPPVLDSDGSFFLYSKLTVDKSRWQQGNVFSCSVMHEALHNHYTQKSLSLSPGK
notes: This is the form with the second and third Ig-like domains; also called FGFR3 A2518F; FGFR3IIIc(143_375) C(Fc5)
B2: FGFR3IIIc(143-375)(P250R) Fc5, truncated FGFR3-Fc P250R (A2519F) (Fc fusion)
chain: B1 chain with P108R
notes: also called FGFR3 A2519F; FGFR3IIIc(143_375) (P250R) C(Fc5)
B3: FGFR3IIIc(143-375)(S249W) Fc5, truncated FGFR3-Fc S249W (A2258F) (Fc fusion)
chain: B1 chain with S107W
notes: also called FGFR3 A2258F; FGFR3A2258F
B4: FGFR3IIIc(23-375) Fc5, full-length FGFR3-Fc (A2257F) (Fc fusion)
chain: ESLGTEQRVVGRAAEVPGPEPGQQEQLVFGSGDAVELSCPPPGGGPMGPTVWVKDGTGLVPSERVLVGPQRLQVLNASHEDSGAYSCRQRLTQRVLCHFSVRVTDAPSSGDDEDGEDEAEDTGVDTGAPYWTRPERMDKKLLAVPAANTVRFRCPAAGNPTPSISWLKNGREFRGEHRIGGIKLRHQQWSLVMESVVPSDRGNYTCVVENKFGSIRQTYTLDVLERSPHRPILQAGLPANQTAVLGSDVEFHCKVYSDAQPHIQWLKHVEVNGSKVGPDGTPYVTVLKTAGANTTDKELEVLSLHNVTFEDAGEYTCLAGNSIGFSHHSAWLVVLPAEEELVEADEAGSVYAGEPKSSDKTHTCPPCPAPEAEGAPSVFLFPPKPKDTLMISRTPEVTCVVVDVSHEDPEVKFNWYVDGVEVHNAKTKPREEQYNSTYRVVSVLTVLHQDWLNGKEYKCKVSNKALPSSIEKTISKAKGQPREPQVYTLPPSRDELTKNQVSLTCLVKGFYPSDIAVEWESNGQPENNYKTTPPVLDSDGSFFLYSKLTVDKSRWQQGNVFSCSVMHEALHNHYTQKSLSLSPGK
notes: also called FGFR3 A2257F; FGFR3IIIc(23_375) C(Fc5)
B5: FGFR3IIIc(23-375)(P250R) Fc5, full-length FGFR3-Fc P250R (A2259F) (Fc fusion)
chain: B4 chain with P228R
notes: also called FGFR3 A2259F; FGFR3IIIc(23_375) (P250R) C(Fc5)
B6: FGFR2alphaIIIc(145-377)(S252W) Fc5, truncated FGFR2-Fc S252W (A2560F) (Fc fusion)
chain: SENSNNKRAPYWTNTEKMEKRLHAVPAANTVKFRCPAGGNPMPTMRWLKNGKEFKQEHRIGGYKVRNQHWSLIMESVVPSDKGNYTCVVENEYGSINHTYHLDVVERWPHRPILQAGLPANASTVVGGDVEFVCKVYSDAQPHIQWIKHVEKNGSKYGPDGLPYLKVLKAAGVNTTDKEIEVLYIRNVTFEDAGEYTCLAGNSIGISFHSAWLTVLPAPGREKEITASPDYLEEPKSSDKTHTCPPCPAPEAEGAPSVFLFPPKPKDTLMISRTPEVTCVVVDVSHEDPEVKFNWYVDGVEVHNAKTKPREEQYNSTYRVVSVLTVLHQDWLNGKEYKCKVSNKALPSSIEKTISKAKGQPREPQVYTLPPSRDELTKNQVSLTCLVKGFYPSDIAVEWESNGQPENNYKTTPPVLDSDGSFFLYSKLTVDKSRWQQGNVFSCSVMHEALHNHYTQKSLSLSPGK
notes: also called FGFR2 A2560F; construct #1949

What was measured:
human FGF-9 = human FGF-9 (human, UniProt P31371 4-208); test: cell-based or functional assay
recombinant human FGF-17 = molecular target: T1, recombinant human FGF-17; test: direct binding ELISA, FGF-17 coated, FGFR-Fc titrated with heparin, anti-human Fc-HRP
Procedure: (§1) To determine the binding capability of FGFR-Fc to their respective ligands, an ELISA was run. Recombinant human FGF-8b or FGF-17 (R&D Systems) was plated at 100 nM on a Nunc Maxisorp 96-well plate for 1 h at room temperature with shaking. The plates were blocked with BLOTTO (Thermo Fisher Scientific, Rockford, Ill.) for 1 h at room temperature, then washed 5 times with ELISA C buffer (137 mM NaCl, 2.7 mM KCl, 7.2 mM Na₂HPO₄, 1.5 mM KH₂PO₄, 0.05% (v/w) polysorbate 20, pH 7.2). FGFR-Fcs were diluted to 100 nM with PBS/0.1×BLOTTO/10 ug/ml porcine heparin (Sigma, St. Louis, Mo.) and then 1:2 serial dilutions were made, ending at 0.10 nM. 100 μL of FGFR-Fcs were plated and incubated at 4° C. overnight. The following day, the plates were washed 5 times with ELISA C and then incubated with 2.5 μg/mL horseradish peroxidase-conjugated anti-human Fc antibody (Jackson ImmunoResearch Laboratories, West Grove, Pa.) for 1 h at room temperature with shaking. After 5 washes with ELISA C, 100 μL of OPD in citrate buffer (5 mg of o-phenylenediamine in 63 mM sodium citrate, 37 mM citric acid, pH 5.0, 0.03% H₂O₂) was added for detection. After 2-5 minutes, the reaction was stopped with 1 N H₂SO₄. The plates were read at 490 nm using SoftMaxPro software.

recombinant human FGF-8b [1] = molecular target: T2, recombinant human FGF-8b; test: direct binding ELISA, FGF-8b coated, FGFR-Fc titrated with heparin, anti-human Fc-HRP
Procedure: as §1

recombinant human FGF6 [2] = molecular target: T3, recombinant human FGF6; test: SPR (Biacore T100), FGFR-Fc captured on protein A, FGF6 analyte with heparin, bivalent analyte model (KA1)
Procedure: (§2) Materials and Methods: Binding kinetics and affinity studies were performed on a Biacore T100™ system (GE Healthcare, Piscataway, N.J.). Methods for the Biacore T100™ were programmed using Biacore T100™ Control Software, v 2.0. Since each of the FGF receptor molecules contained a human Fc domain, biotinylated protein-A (Thermo Fisher Scientific Inc, Rockford, Ill.) was used as a capture reagent for these studies. Biotinylated protein-A was diluted to concentration of 50 μg/mL in HBS-EP buffer (10 mM HEPES, 150 mM NaCl, 3 mM EDTA, 0.05% Surfactant P20; GE Healthcare, Piscataway, N.J.), and then captured to all four flow cells of a SA (streptavidin) sensor chip. A density of approximately 1100 RU was obtained for each flow cell. Each FGF receptor molecule was subsequently captured via protein-A onto a separate flow cell of the SA chip at an approximate density of 150-250 RU. The Biacore instrument measures the mass of protein bound to the sensor chip surface, and thus, capture of the receptor was verified for each cycle.
(§3) For kinetic binding studies, serial 1:5 dilutions of FGF ligands were prepared from 200 nM-0.06 nM. These samples were injected over the surface and allowed to specifically bind to the FGF receptor captured on the sensor chip. Injections of each ligand concentration were performed with an association time of 7 minutes and dissociation time of 15 minutes. Kinetic binding studies were performed with a flow rate of 50 μL/min. All binding experiments were performed at 25° C. in HBS-P buffer (10 mM HEPES, 150 mM NaCl, 0.05% Surfactant P20, pH 7.4; GE Healthcare, Piscataway, N.J.), containing 50 μg/mL heparin (Calbiochem, La Jolla, Calif.).
(§4) Between cycles, the flow cell was washed with 20 mM hydrochloric acid to regenerate the surface. This wash step removed both the captured FGF receptor and any bound FGF ligand from the protein-A surface, and allowed for the subsequent binding of the next test sample. Data was compiled using the Biacore T100™ Evaluation software (version 2.0). Data was processed by subtracting reference flow cell and blank injections. Baseline stability was assessed to ensure that the regeneration step provided a consistent binding surface throughout the sequence of injections. Duplicate injection curves were checked for reproducibility. Binding curves were globally fit to the bivalent analyte model.

recombinant human FGF6 [3] = molecular target: T3, recombinant human FGF6; test: SPR (Biacore T100), FGFR-Fc captured on protein A, FGF6 analyte with heparin, bivalent analyte model (KD1)
Procedure: as §2, §3, §4

recombinant human FGF6 [4] = molecular target: T3, recombinant human FGF6; test: SPR (Biacore T100), FGFR-Fc captured on protein A, FGF6 analyte with heparin, bivalent analyte model (ka1)
Procedure: as §2, §3, §4

recombinant human FGF6 [5] = molecular target: T3, recombinant human FGF6; test: SPR (Biacore T100), FGFR-Fc captured on protein A, FGF6 analyte with heparin, bivalent analyte model (kd1)
Procedure: as §2, §3, §4

recombinant human FGF-8b [6] = molecular target: T2, recombinant human FGF-8b; test: cell-based or functional assay
recombinant human FGF1 = recombinant human FGF1 (human, UniProt P05230 16-155); test: cell-based or functional assay
Sequence of recombinant human FGF1 (P05230 16-155 limits assumed): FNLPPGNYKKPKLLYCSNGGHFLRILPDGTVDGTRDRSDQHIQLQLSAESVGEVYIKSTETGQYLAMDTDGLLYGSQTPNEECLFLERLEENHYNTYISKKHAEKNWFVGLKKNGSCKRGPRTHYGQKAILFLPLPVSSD

recombinant human FGF2 = recombinant human FGF2 (human, UniProt P09038 143-288, limits assumed); test: cell-based or functional assay
Sequence of recombinant human FGF2 (P09038 143-288 limits assumed): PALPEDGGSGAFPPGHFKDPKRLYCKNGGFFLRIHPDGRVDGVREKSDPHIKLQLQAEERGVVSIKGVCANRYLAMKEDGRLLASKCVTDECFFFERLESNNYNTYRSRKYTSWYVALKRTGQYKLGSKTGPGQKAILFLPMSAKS

recombinant human FGF4 = molecular target: T4, recombinant human FGF4; test: cell-based or functional assay
recombinant human FGF6 [7] = molecular target: T3, recombinant human FGF6; test: cell-based or functional assay

Binder	Proliferation IC50, FGF-9-stimulated HCO osteoblasts (3H-thymidine) (human FGF-9)	IC50 (recombinant human FGF-17)	IC50 (recombinant human FGF-8b [1])	Ka (recombinant human FGF6 [2])	Kd (recombinant human FGF6 [3])	kon (recombinant human FGF6 [4])	koff (recombinant human FGF6 [5])	Proliferation IC50, FGF8b-stimulated LNCap cells (3H-thymidine) (recombinant human FGF-8b [6])	IC50, FGF-stimulated HUVEC proliferation (3H-thymidine) (recombinant human FGF1)	IC50, FGF-stimulated HUVEC proliferation (3H-thymidine) (recombinant human FGF2)	IC50, FGF-stimulated HUVEC proliferation (3H-thymidine) (recombinant human FGF4)	IC50, FGF-stimulated HUVEC proliferation (3H-thymidine) (recombinant human FGF6 [7])
B1	0.77 nM	3.79 nM	16.4 nM	3e+06 M⁻¹	300 nM	200000 M⁻¹ s⁻¹	0.06 s⁻¹	–	–	–	–	–
B2	0.99 nM	37.6 nM	9.7 nM	5e+07 M⁻¹	20 nM	200000 M⁻¹ s⁻¹	0.004 s⁻¹	0.01 nM	–	–	–	–
B3	0.75 nM	1.31 nM	10 nM	5e+08 M⁻¹	2 nM	300000 M⁻¹ s⁻¹	0.0006 s⁻¹	0.02 nM	0.55 nM	0.67 nM	0.68 nM	0.78 nM
B4	1.19 nM	20.1 nM	41.9 nM	7e+06 M⁻¹	200 nM	400000 M⁻¹ s⁻¹	0.06 s⁻¹	–	–	–	–	–
B5	1.14 nM	45.3 nM	52.6 nM	6e+07 M⁻¹	20 nM	300000 M⁻¹ s⁻¹	0.005 s⁻¹	–	–	–	–	–
B6	–	223 nM	–	–	–	–	–	–	–	–	–	–
